Test results taken from patent US20060269536A1.

Target: hK3 (PSA) (human) (UniProt P07288)
Test: cell-based or functional assay

hK3 (PSA) (human), sequence (P07288 25-261 limits assumed): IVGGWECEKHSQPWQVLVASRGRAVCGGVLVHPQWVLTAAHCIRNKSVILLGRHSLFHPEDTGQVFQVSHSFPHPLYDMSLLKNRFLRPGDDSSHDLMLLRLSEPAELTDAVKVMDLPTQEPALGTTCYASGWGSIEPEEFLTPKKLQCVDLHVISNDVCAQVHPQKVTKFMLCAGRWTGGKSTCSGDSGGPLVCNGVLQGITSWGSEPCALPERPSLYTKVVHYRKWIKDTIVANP

Inhibition % (residual enzyme activity, CFP-TFRSA-YFP substrate, 90 min at 37°): 45%
B1: rACT8.20 (designed binder)
chain: MRGSHHHHHHSRHPNSPLDEENLTQENQDRGTHVDLGLASANVDFAFSLYKQLVLKAPDKNVIFSPLSISTALAFLSLGAHNTTLTEILKGLKFNLTETSEAEIHQSFQHLLRTLNQSSDELQLSMGNAMFVKEQLSLLDRFTEDAKRLYGSEAFATDFQDSAAAKKLINDYVKNGTRGKITDLIKDLDSQTMMVLVNYIFFKAKWEMPFDPQDTHQSRFYLSKKKWVMVPMMSLHHLTIPYFRDEELSCTVVELKYTGNASALFILPDQDKMEEVEAMLLPETLKRWRDSLEFREIGELYLPKFSISRDYNLNDILLQLGIEEAFTSKADLSGITGARNLAVSQVVHKAVLDVFEEGTEASAATAVKITLRSRAVETRTIVRFNRPFLMIIVPTDTQNIFFMSKVTNPKQA
